Source: patent publication US20180030151A1 (MOGAM INSTITUTE FOR BIOMEDICAL RESEARCH, published 2018)
Read-outs that look alike come from different tables or passages of the source.

Legend:
Test in all cases: cell-based or functional assay
[1] = target: T1, recombinant human TFPI (tissue factor pathway inhibitor) (human, UniProt P10646 29-304)
[2] = target: T1, recombinant human TFPI (tissue factor …); remark: listed apart in the source
[3] = target: T1, recombinant human TFPI (tissue factor …); remark: listed apart in the source
[4] = target: T1, recombinant human TFPI (tissue factor …); remark: listed apart in the source
[5] = target: T1, recombinant human TFPI (tissue factor …); remark: listed apart in the source
[6] = target: T1, recombinant human TFPI (tissue factor …); remark: listed apart in the source
[7] = target: T1, recombinant human TFPI (tissue factor …); remark: listed apart in the source

B1: clone 1015 (antibody, V domains shown)
VH: EVQLVESGGGLVKPGGSLRLSCAASGFTFSSYAMNWVRQAPGKGLEWVSTITTGGSHTYYADSVEGRFTISRDNAKNSLYLQMNSLRAEDTAVYYCARQDGNFLMDYWGQGTLVTVSS
VL: DVVMTQTPLSLPVTLGQPASISCKSSQSLLDIDGKTYLNWLQQRPGQSPKRLIYLVSKLDSGVPDRFTGSGSGTDFTLKISRVEAEDVGVYYCWQGTHFPFTFGQGTKVEIKR
effect of inhibiting TFPI, FXa activity assay, Ab 10 nM [1]: ~71%
effect of inhibiting TFPI, FXa activity assay, Ab 20 nM [1]: ~83%
A405, TF/FVIIa/FX complex assay, Ab 1.56 nM [2]: 0.141
A405, TF/FVIIa/FX complex assay, Ab 3.13 nM [2]: 0.148
A405, TF/FVIIa/FX complex assay, Ab 6.25 nM [2]: 0.158
A405, TF/FVIIa/FX complex assay, Ab 12.5 nM [2]: 0.179
A405, TF/FVIIa/FX complex assay, Ab 25 nM [2]: 0.269
A405, TF/FVIIa/FX complex assay, Ab 50 nM [2]: 0.919
A405, TF/FVIIa/FX complex assay, Ab 100 nM [2]: 0.944
% of Normalized, TF/FVIIa/FX complex assay, Ab 1.56 nM [3]: 15.4%
% of Normalized, TF/FVIIa/FX complex assay, Ab 3.13 nM [3]: 16.1%
% of Normalized, TF/FVIIa/FX complex assay, Ab 6.25 nM [3]: 17.2%
% of Normalized, TF/FVIIa/FX complex assay, Ab 12.5 nM [3]: 19.4%
% of Normalized, TF/FVIIa/FX complex assay, Ab 25 nM [3]: 29.3%
% of Normalized, TF/FVIIa/FX complex assay, Ab 50 nM [3]: 100%
% of Normalized, TF/FVIIa/FX complex assay, Ab 100 nM [3]: 103%
FXa assay % of FXa alone, 2.5 nM Ab, 10 nM TFPI [4]: 6.5%
FXa assay % of FXa alone, 5 nM Ab, 10 nM TFPI [4]: 14%
FXa assay OD, 2.5 nM Ab, 10 nM TFPI [4]: 0.0465
FXa assay OD, 5 nM Ab, 10 nM TFPI [4]: 0.101
FXa assay OD, 10 nM Ab, 10 nM TFPI [4]: 0.512
FXa assay OD, 20 nM Ab, 10 nM TFPI [4]: 0.594

B2: clone 3203 (antibody, V domains shown)
VH: EVQLVESGGGLVKPGGSLRLSCAASGFTFSSYAMSWVRQAPGKGLEWVSTITTGGSYTYYADSVEGRFTISRDNAKNSLYLQMNSLRAEDTAVYYCARQDGNFLMDYWGQGTLVTVSS
VL: DVVMTQTPLSLPVTLGQPASISCKSSQSLLDLDGKTYLNWLQQRPGQSPKRLIYLVSKLDSGVPDRFTGSGSGTDFTLKISRVEAEDVGVYYCWQGTHFPFTFGQGTKVEIKR
A405, TF/FVIIa/FX complex assay, Ab 1.56 nM [5]: 0.147
A405, TF/FVIIa/FX complex assay, Ab 3.13 nM [5]: 0.162
A405, TF/FVIIa/FX complex assay, Ab 6.25 nM [5]: 0.173
A405, TF/FVIIa/FX complex assay, Ab 12.5 nM [5]: 0.208
A405, TF/FVIIa/FX complex assay, Ab 25 nM [5]: 0.424
A405, TF/FVIIa/FX complex assay, Ab 50 nM [5]: 0.934
A405, TF/FVIIa/FX complex assay, Ab 100 nM [5]: 0.932
% of Normalized, TF/FVIIa/FX complex assay, Ab 1.56 nM [6]: 16.1%
% of Normalized, TF/FVIIa/FX complex assay, Ab 3.13 nM [6]: 17.7%
% of Normalized, TF/FVIIa/FX complex assay, Ab 6.25 nM [6]: 18.9%
% of Normalized, TF/FVIIa/FX complex assay, Ab 12.5 nM [6]: 22.7%
% of Normalized, TF/FVIIa/FX complex assay, Ab 25 nM [6]: 46.3%
% of Normalized, TF/FVIIa/FX complex assay, Ab 50 nM [6]: 102%
% of Normalized, TF/FVIIa/FX complex assay, Ab 100 nM [6]: 102%
FXa assay % of FXa alone, 2.5 nM Ab, 10 nM TFPI [7]: 6.2%
FXa assay % of FXa alone, 5 nM Ab, 10 nM TFPI [7]: 13.5%
FXa assay % of FXa alone, 10 nM Ab, 10 nM TFPI [7]: 48.5%
FXa assay % of FXa alone, 20 nM Ab, 10 nM TFPI [7]: 68%
FXa assay OD, 2.5 nM Ab, 10 nM TFPI [7]: 0.0505
FXa assay OD, 5 nM Ab, 10 nM TFPI [7]: 0.11
FXa assay OD, 10 nM Ab, 10 nM TFPI [7]: 0.394
FXa assay OD, 20 nM Ab, 10 nM TFPI [7]: 0.552
